Here are results for one protein from article PMC12002230, “The cryo-EM structure and physical basis for anesthetic inhibition of the THIK1 K2P channel” (Proceedings of the National Academy of Sciences of the …, 2025).

The data set deals with the molecule itself. Kind of data set: cryo-EM structure; purified THIK1EM at 2.4 mg/mL in 150 mM KCl, 20 mM Tris pH 8, 0.01% GDN; 300 kV Titan Krios, RELION; 3.2 Å.

One may read the stoichiometry N as the number of molecules, sites or subunits per partner or assembly.

B1: C-terminally truncated human THIK1 (KCNK13), residues 1 to 309 (domain or fragment, UniProt Q9HB14 1-309, looked up)
chain: MAGRGFSWGPGHLNEDNARFLLLAALIVLYLLGGAAVFSALELAHERQAKQRWEERLANFSRGHNLSRDELRGFLRHYEEATRAGIRVDNVRPRWDFTGAFYFVGTVVSTIGFGMTTPATVGGKIFLIFYGLVGCSSTILFFNLFLERLITIIAYIMKSCHQRQLRRRGALPQESLKDAGQCEVDSLAGWKPSVYYVMLILCTASILISCCASAMYTPIEGWSYFDSLYFCFVAFSTIGFGDLVSSQNAHYESQGLYRFANFVFILMGVCCIYSLFNVISILIKQSLNWILRKMDSGCCPQCQRGLLRS
modifications: N-glycosylation at N59 and N65
notes: C-terminally truncated; The N-terminal GFP-His10 tags were removed by PreScission (3C) protease at LEVLFQ/GP; residues of the cleavage site probably remain at the N-terminus (surmised); Homodimeric K2P channel in GDN detergent; also called THIK1EM; hTHIK1EM; source: HEK293 GnTi- cells, baculovirus (BacMam) infection, purified (GFP-nanobody resin, 3C cleavage, Superdex 200 in GDN); not shown: GFP, …
As for B1, the “stoichiometry N” value worked out at 2.
